Data published in patent US20240400663A1 (Regeneron, published 2024).

Experiments:
Test in all cases: cell-based or functional assay
[1] = biological target: PfRH5 of Plasmodium falciparum strain HB3 (on live parasites) (Plasmodium falciparum)
[2] = biological target: PfRH5 of Plasmodium falciparum strain RF7 (on live parasites) (Plasmodium falciparum)
[3] = biological target: PfRH5 of Plasmodium falciparum strain 7G8 (on live parasites) (Plasmodium falciparum)
[4] = biological target: PfRH5 of Plasmodium falciparum strain Cam3.II (on live parasites) (Plasmodium falciparum)
[5] = biological target: PfRH5 of Plasmodium falciparum strain D10 (on live parasites) (Plasmodium falciparum)
[6] = biological target: PfRH5 of Plasmodium falciparum strain FCR-1/FVO (on live parasites) (Plasmodium falciparum)
[7] = biological target: PfRH5 of Plasmodium falciparum strain W2-mef (on live parasites) (Plasmodium falciparum)
[8] = biological target: PfRH5 of Plasmodium falciparum strain Dd2 (on live parasites) (Plasmodium falciparum)

Binder | Max growth inhibition (%) HB3 [1] | Max growth inhibition (%) RF7 [2] | Max growth inhibition (%) 7G8 [3] | Max growth inhibition (%) Cam3.II [4] | Max growth inhibition (%) D10 [5] | Max growth inhibition (%) FCR-1/FVO [6] | Max growth inhibition (%) W2-mef [7] | Max growth inhibition (%) Dd2 [8]
H1H29138P (antibody, V domains shown) VH: QVQLVESGGGVVQPGRSLRLSCAASGFTFSTYGMHWVRQAPGKGLEWVAVIWYDGTNKYYADSVKGRFTISRDNSKNTLYLQMISLRAEDTAVYYCARDPSGGDHYYYYGMDVWGQGTTVTVSS VL: DIQMTQSPSSLSASVGDRITITCQASQDISNYLNWYQQKPGKAPNLLISDASDLETGVPSRFSGSGSGTDFTFTISSLQPEDFATYYCQQYDNIPITFGQGTRLEIKR | 51.4% | 51.4% | 57.4% | 48.7% | 57.1% | 84.1% | 66.4% | 74.4%
H1H29141P (antibody, V domains shown) VH: QVQLVESGGGVVQPGRSLRLSCAASGFTFSSYGMHWVRQAPGKGLEWVTFISFDERNKYYADSVKGRFTISRDNSKNTLYLQMNSLRAEDTAMYYCASEVGYSFGHDAFDIWGQGTMVTVSS VL: not shown | 50% | 32.1% | 54.6% | 49.3% | 50% | 74.2% | 56.2% | 65.3%
H1H29146P2 (antibody, V domains shown) VH: EVQLVESGGGLVQPGGSLQLSCAASGFAFSDSAIYWVRQASGKGLEWVGRIRNKANRFATAYGASVKGRFSIHRDDSKNTAYLQMNSLKTEDTAVYYCARHGHDTLTEGYGMDVWGQGTTVTVSS VL: not shown | 33.9% | 5.97% | 19.1% | 8.18% | 10.8% | 7.32% | 0.57% | 
H1H29149P2 (antibody, V domains shown) VH: QVQLQESGPGLVKPSQTLSLTCTVSGGSISSGGYYWNWIRQHPGKGLEWIGYIYYSGSTYYNPSLKSRVTISVDTSKNQFSLKLGSVTAADTAVYYCARAPPYNWFDYWGQGTLVTVSS VL: not shown | 40% | 14.7% |  | 36.2% | 66% | 58% | 42.8% | 
H1H29151P2 (antibody, V domains shown) VH: QVQLVESGGGLVKPGGSLRLSCAASGFTFSDYYMNWVRQAPGKGLEWVSYISNSGNTQYYADSVKGRFTISRDNAKNSLFLQMNSLRAEDTAVYYCTREGLEYSSSEPFDYWGQGTLVTVSS VL: not shown | 31.7% | 18.3% | 47.5% | 26.3% | 38.7% | 53.7% | 53.9% | 58%
H1H29163P2 (antibody, V domains shown) VH: QVQLVQSGAEVKKPGASVKVSCKTSGYTFTAYYIHWVRQAPGQGLEWMGWINPNNGDTNYALRFQGRVTMTRDMSINTAYMELRGLRSDDTAVYYCARDDLAAAGIGWFDSWGQGTLVTVSS VL: not shown | 56.5% | 10.7% | 62.6% | 46.7% |  | 64.5% | 63.7% | 61.2%
H1H29166P2 (antibody, V domains shown) VH: EVQLVESGGGLLQPGRSLRLSCVASGFTFDDYAMHWVRQAPGKGLEWVSGISWNSESIGYADSVRGRFTISRDNAKNSLYLQMNSLRAEDTALYYCAKAPYSGTYFEYFRHWGQGTLVTVSS VL: not shown | 54.9% | 19.4% | 54.6% | 55.9% | 70.9% | 69.7% | 61.9% | 60%
H1H29171P2 (antibody, V domains shown) VH: QVQLVESGGGVVQPGRSLRLSCAASGFTFSSYGMHWVRQAPGKGLEWVAVISYDGSNKYYADSVKGRFTISRDNSKNTLYLQMNSLRAEDTAVYYCAKDDWNYDAFDIWGQGTMVTVSS VL: not shown | 0.52% | -12.5% | 17% | 5.45% | 10.6% | 11.7% | 0.74% | 7.71%
H1H29179P2 (antibody, V domains shown) VH: QVQLQESGPGLVKPSQTLSLTCTVSGGSISSSGYYWSWIRQHPGRGLEWIGYIYYSGSTYYNPSLKSRVTISVDTSKNQFSLKLNSVTAADTAVYYCARVDYGSGSSFDYWGQGTLVTVSS VL: not shown | 40.9% | -2.99% | 34.1% | 33.4% | 62.5% | 49% | 22.9% | 13.5%
H1H29183P2 (antibody, V domains shown) VH: QVQLVQSGPEVKKPGASVKVSCKASGYTFTSYGISWVRQAPGQGLEWLGWISGFNGRTDYTEKLQDRITMTTDRSSSTAYMELRSLRYDDTAVYYCARDGLEKLGDYWGQGTLVTVSS VL: not shown | 4.92% | -6.27% | 17.8% | 8.66% | 6.79% | 16.1% | -0.55% | 0.68%
H1H29192P2 (antibody, V domains shown) VH: QVQLVQSGAEVKKPGASVRVSCMASGYTFTGYYMHWVRQAPGQGLEWMGWINPNSGGTKYAQKFQGRVTMTRDTSISTAYMELSRLRSDDTAVYYCAREEVDDFWSGYLDYWGQGTLVTVSS VL: not shown | 5.62% | -7.69% | 12.4% | -3.38% | 8.7% | 15.1% | 4.35% | -15.2%
H1H29094P (antibody, V domains shown) VH: not shown VL: DIQMTQSPSSLSASVGDRVTITCQASQDINRDLNWYQQKSGKGPKLLIYDASNLETGVPSRFSGNRFGTDFTFTISRLQPEDIATYFCQQYKNLPYTFGQGTKLEIKR | 45.4% | 15.2% | 29.9% | 26.2% | 35.9% | 51.2% | 34.9% | 41.6%
H1H29196P2 (antibody, V domains shown) VH: EVQLVESGGDLVQPGGSLRLSCAASGFAVNGDYFSWVRQAPGKGLEWISVIYSSGNTYYADSVKGRFTISRHNSKNTLYLQMSSLRPEDTAVYYCARDFPPMSGADYWGQGTLVTVSS VL: not shown | 26.8% | 3.78% | 23.4% | 6.09% | 14.3% | 21.9% | 17% | -1.65%
H1H29198P2 (antibody, V domains shown) VH: QVQLVQSGAEVKKPGASVKVSCKVSGYTLTELSMHWVRQAPGKGLEWMGGFDPEHGKIIYAQKFQGRVTMTEDTSTDTAYMELSSLRSEDTAVYYCATFYNWNSYYFGMDVWGHGTTVTVSS VL: not shown | 15.5% | 1.53% | 5.31% | 14.7% | 4.38% | 11.1% | -3.61% | 10.1%
H1H29207P2 (antibody, V domains shown) VH: EVQLVESGGGLVQPGGSLRLSCAASGFTFSSYAMNWVRQAPGKGLEWVSAVSGSADITNYADSVKGRFTISRDNSKHTLYLQMNSLRAEDTAVYYCAKDKVYNWNYGIYYGMDVWGQGTTVTVSS VL: not shown | 49.3% | 31.1% | 58.7% | 45.3% | 73.9% | 69.2% | 65.2% | 61.3%
H1H29125P (antibody, V domains shown) VH: QVQLVESGGGVVQPGRSLRLSCAASGFTFSSYGMHWVRQAPGKGLEWMAVISYDGSNKYYADSVKGRFTISRDNSKNTLFLQMNSLRPEDTAVYYCAQDGSSAIYYFYGMDVWGQGTTVTVSS VL: DIQMTQSPSSLSASIGDRVTITCRASQDINNYLAWFQQKPGKAPKSLIYAASSLQSGVPSKFSGSGSGTDFTLTISSLQPEDFATYYCLQYNSYHPTFGQGTKLEIKR |  | 21% | 47% | 42.7% | 75.4% | 67.6% | 64.6% | 51.4%
